Experimental data from the supplement of paper PMC11246515.
± gives the standard deviation of the averaged measurements.

Experiment: total protein half-life in vivo (active degradation + dilution); higher = more stable protein
[1] = E. coli NCM3722 delta-clpP delta-lon delta-hslV, growth: N-lim chemostat, doubling time 6 h
[2] = E. coli NCM3722 delta-hslV, growth: N-lim chemostat, doubling time 6 h
[3] = E. coli NCM3722 delta-smpB, growth: N-lim chemostat, doubling time 6 h
[4] = wild type E. coli NCM3722, growth: C-lim chemostat, doubling time 3 h
[5] = wild type E. coli NCM3722, growth: C-lim chemostat, doubling time 6 h
[6] = wild type E. coli NCM3722, growth: C-lim chemostat, doubling time 12 h
[7] = wild type E. coli NCM3722, growth: N-lim chemostat, doubling time 6 h
[8] = wild type E. coli NCM3722, growth: N-lim chemostat, doubling time 12 h
[9] = wild type E. coli NCM3722, growth: P-lim chemostat, doubling time 6 h
[10] = wild type E. coli NCM3722, growth: P-lim chemostat, doubling time 12 h
[11] = E. coli NCM3722 delta-clpP, growth: N-lim chemostat, doubling time 6 h
[12] = E. coli NCM3722 delta-lon, growth: N-lim chemostat, doubling time 6 h

Sequence | total protein half-life in vivo [1] | total protein half-life in vivo [2] | total protein half-life in vivo [3] | total protein half-life in vivo [4] | total protein half-life in vivo [5] | total protein half-life in vivo [6] | total protein half-life in vivo [7] | total protein half-life in vivo [8] | total protein half-life in vivo [9] | total protein half-life in vivo [10] | total protein half-life in vivo [11] | total protein half-life in vivo [12]
MKKLTVAALAVTTLLSGSAFAHEAGEFFMRAGSATVRPTEGAGGTLGSLGGFSVTNNTQLGLTFTYMATDNIGVELLAATPFRHKIGTRATGDIATVHHLPPTLMAQWYFGDASSKFRPYVGAGINYTTFFDNGFNDHGKEAGLSDLSLKDSWGAAGQVGVDYLINRDWLVNMSVWYMDIDTTANYKLGGAQQHDSVRLDPWVFMFSAGYRF [P0A915] | 6.65 ± 0.21 h | 6.45 ± 0.39 h | 6.21 ± 1.9 h | 3.53 ± 0.14 h | 7.52 ± 0.61 h | 12.6 ± 1.5 h | 7.26 h | > 16 h | 6.15 h | 15.44 ± 0.068 h |  | 
MNTPAQLSLPLYLPDDETFASFWPGDNSSLLAALQNVLRQEHSGYIYLWAREGAGRSHLLHAACAELSQRGDAVGYVPLDKRTWFVPEVLDGMEHLSLVCIDNIECIAGDELWEMAIFDLYNRILESGKTRLLITGDRPPRQLNLGLPDLASRLDWGQIYKLQPLSDEDKLQALQLRARLRGFELPEDVGRFLLKRLDREMRTLFMTLDQLDRASITAQRKLTIPFVKEILKL | 5.11 ± 0.35 h | 5.42 ± 0.81 h | 4.29 ± 0.12 h | 2.74 ± 0.07 h | 5.7 ± 1.3 h | 9.48 ± 1.9 h | 4.404 ± 0.034 h | 7.28 ± 0.61 h | 5.14 ± 0.064 h | 10.6 ± 0.12 h | 4.947 ± 0.022 h | 4.21 ± 0.21 h
MKKPLRQQNRQIISYVPRTEPAPPEHAIKMDSFRDVWMLRGKYVAFVLMGESFLRSPAFTVPESAQRWANQIRQEGEVTE [P0AE60] |  | 3.87 h |  |  |  |  | 3.66 h | 6.6 h | 4.26 ± 1.1 h | 9.35 h | 5.19 h | 
MSKRRYLTGKEVQAMMQAVCYGATGARDYCLILLAYRHGMRISELLDLHYQDLDLNEGRINIRRLKNGFSTVHPLRFDEREAVERWTQERANWKGADRTDAIFISRRGSRLSRQQAYRIIRDAGIEAGTVTQTHPHMLRHACGYELAERGADTRLIQDYLGHRNIRHTVRYTASNAARFAGLWERNNLINEKLKREEV [P0ADH7] | 4.85 ± 0.3 h |  | 1.18 h | 0.333 h |  |  |  |  |  |  |  | 
MIAIADILQAGEKLTAVAPFLAGIQNEEQYTQALELVDHLLLNDPENPLLDLVCAKITAWEESAPEFAEFNAMAQAMPGGIAVIRTLMDQYGLTLSDLPEIGSKSMVSRVLSGKRKLTLEHAKKLATRFGISPALFID | 4.71 h |  |  |  |  |  |  |  |  | 1.85 h | 1.51 h | 
MSALNKKSFLTYLKEGGIYVVLLVLLAIIIFQDPTFLSLLNLSNILTQSSVRIIIALGVAGLIVTQGTDLSAGRQVGLAAVVAATLLQSMDNANKVFPEMATMPIALVILIVCAIGAVIGLINGLIIAYLNVTPFITTLGTMIIVYGINSLYYDFVGASPISGFDSGFSTFAQGFVALGSFRLSYITFYALIAVAFVWVLWNKTRFGKNIFAIGGNPEAAKVSGVNVGLNLLMIYALSGVFYAFGGMLEAGRIGSATNNLGFMYELDAIAACVVGGVSFSGGVGTVIGVVTGVIIFTVINYGLTYIGVNPYWQYIIKGAIIIFAVALDSLKYARKK | 3.21 h | 6.83 ± 0.54 h | 6.18 ± 0.67 h | 3.05 ± 0.18 h |  | 12 ± 0.2 h |  |  | 5.49 ± 1.3 h |  | 6.19 h | 6.18 h
MRLLPLVAAATAAFLVVACSSPTPPRGVTVVNNFDAKRYLGTWYEIARFDHRFERGLEKVTATYSLRDDGGLNVINKGYNPDRGMWQQSEGKAYFTGAPTRAALKVSFFGPFYGGYNVIALDREYRHALVCGPDRDYLWILSRTPTISDEVKQEMLAVATREGFDVSKFIWVQQPGS [P0A901] | 5.85 ± 0.12 h | 5.56 ± 0.29 h | 5.8 ± 0.32 h | 2.82 ± 0.082 h | 5.41 ± 0.38 h | 10.6 ± 2.6 h | 5.78 ± 0.14 h | 11.8 ± 1.4 h | 5.43 ± 0.26 h | 11.04 ± 0.072 h | 6.28 ± 0.6 h | 6.82 ± 0.84 h
